The results in this text go back to the RNAGym collection of RNA variant scans (doi:10.7554/elife.80360).

The chains are these.
B1: HDV Ribozyme (parent)
chain: GGCCGGCAUGGUCCCAGCCUCCUCGCUGGCGCCGGCUGGGCAACAUUCCGAGGGGACCGUCCCCUCGGUAAUGGCGAAUGGGACCCA

Variants of B1 are the subject of the data set. As to the kind of experiment: self-cleavage, relative activity (ratio to wild type); higher = more cleavage; co-transcriptional.
A45G C57A: the self-cleavage came out at 0.979.
As to U46C G80A, the self-cleavage stood at 0.185.
In the case of A45C A78C it was 0.135; in that of C44U G67U, 0.499.
In the case of A43G C62U it was 0.646; in that of A43G C62G, 0.415; in that of C44U C58G, 0.712.
In the case of A43G U47G it was 0.997; in that of A45G A83C, 0.482.
In the case of A43U G82A, the self-cleavage was 0.0811.
In the case of A43G A45G it was 0.554.
C44G A56U: the self-cleavage is 0.734.
Turning to A43C U79C, the self-cleavage worked out at 0.113.
Take A43C U79A: the self-cleavage was determined as 0.0791.
For A43C U79G, the self-cleavage was determined as 0.227.
To U46G C84A belongs 0.554; to U46C G50A, 0.698; to U46C G50C, 0.932.
Regarding A45C C48U, the self-cleavage was determined as 0.642.
To A45C C48A belongs 0.779; to C44A G50C, 0.702.
In the case of U46C A83C it was 0.237; in that of U46G C63U, 0.813; in that of C44G A45C, 0.578.
To C44A C85G belongs 0.629.
Take A43U C64U: the self-cleavage was found to be 0.588.
In the case of A43U C64G, the self-cleavage stood at 0.506.
In the case of C44G C64A, the self-cleavage came out at 0.745.
To C44U C64G belongs 0.862; to C44A A87U, 0.686.
In the case of U46G C48U it was 0.751; in that of C44G A87U, 0.675; in that of U46A C49A, 0.665.
To A43C U60A belongs 0.249; to A43C U60G, 0.68; to A43G U65A, 0.554.
For the variant U46C G76C, the self-cleavage worked out at 0.415.
In the case of A43G G68U it was 0.436.
In the case of A45C A87C it was 0.554; in that of C44A A71C, 0.332.
In the case of U46G C61A it was 0.617.
Take A43G C61G: the self-cleavage was 0.739.
As for A43G U69C, the self-cleavage amounted to 0.302.
To U46A C48A belongs 0.665; to A43U A78U, 0.0489.
In the case of A43U A78G it was 0.262; in that of C44G U69A, 0.657.
In the case of C44G U69C it was 0.776; in that of A45C G55U, 0.525; in that of A45C G55A, 0.554.
Regarding A45G G73A, the self-cleavage amounted to 0.966.
As for U46A G82C, the self-cleavage was 0.
Turning to A43U G50A, the self-cleavage worked out at 0.47.
In the case of A43U C62U it was 0.394; in that of A43U C62G, 0.332.
To C44U C85A belongs 0.814; to C44U C85U, 0.954; to C44G C66U, 0.694.
In the case of A45U C61A it was 0.928; in that of A43G G76U, 0.892.
For A43G G76C, the self-cleavage was 0.58.
In the case of A45C C57G it was 0.851.
As to U46A G81C, the self-cleavage is 0.312.
To A43G U72C belongs 0.434; to U46A G50A, 0.658; to C44U A45G, 0.739.
As for A45U C48G, the self-cleavage was found to be 0.739.
In the case of C44A G74U it was 0.702.
On to C44U G52U, for which the self-cleavage was determined as 0.82.
In the case of A45U C63G, the self-cleavage came out at 0.63.
Turning to A43G C64A, the self-cleavage was 0.612.
As for C44A A56U, the self-cleavage was determined as 0.614.
For the variant A43U G52C, the self-cleavage came to 0.743.
Take A43U G52U: the self-cleavage amounted to 0.339.
In the case of U46G C85G it was 0.665.
With A45U G67A, the self-cleavage is 0.717.
In the case of A45U G67C it was 0.719; in that of A43U G74C, 0.125; in that of C44U A83C, 0.314.
To U46A C86U belongs 0.594; to C44U C84A, 0.614; to A45U A51U, 0.767.
To U46C C62G belongs 0.249; to A43U C61U, 0.302.
As to U46C C48G, the self-cleavage turned out to be 1.18.
For the variant U46C C48A, the self-cleavage was determined as 0.89.
To A43U C66U belongs 0.575; to U46C C63G, 0.72; to A45C G81C, 0.0489.
Regarding A43U U47G, the self-cleavage is 0.361.
To A43U A71G belongs 0.405; to C44G C86U, 0.897; to A45C A56G, 0.615.
To C44U C48U belongs 0.898.
In the case of A45C C62A it was 0.584; in that of A45C C62G, 0.391.
For A43C G81A, the self-cleavage stood at 0.248.
In the case of U46C G82U it was 0.138.
In the case of A43U G59U it was 0.783; in that of A45C C61U, 0.796; in that of A45C C61A, 0.671.
To A43U A45U belongs 0.594.
Take U46C C58G: the self-cleavage was found to be 0.582.
For the variant U46G G50C, the self-cleavage came out at 0.429.
As for U46A C62G, the self-cleavage was 0.289.
C44A G59A: the self-cleavage turned out to be 0.762.
On to C44A G59C, for which the self-cleavage was 0.796.
To A45G C64A belongs 0.658; to C44U U60A, 0.594.
To A45U G73A belongs 0.616.
To A45U G73U belongs 0.302; to C44A C64U, 0.665; to A45C U47G, 0.95.
With U46C A78C, the self-cleavage turned out to be 0.0426.
Take U46C A78G: the self-cleavage stood at 0.554.
In the case of A43U G55C it was 0.399; in that of A43U G55A, 0.537; in that of A43G G80C, 0.208.
To A45U A87C belongs 0.783; to A45C G54A, 0.597; to A45U C85U, 0.877.
In the case of A45G G80C, the self-cleavage is 0.415.
In the case of A45G G50C it was 0.989; in that of A45G G50U, 1.16.
To C44G G53A belongs 0.665.
Turning to A43U C85G, the self-cleavage is 0.609.
In the case of A45U G53A it was 0.997.
In the case of C44U A70G it was 0.793; in that of C44U A70U, 0.955; in that of C44A U72G, 0.431.
To A45G U60A belongs 0.866.
As to A45C G82A, the self-cleavage stood at 0.208.
To U46G A78U belongs 0.0573; to C44U G53A, 0.709; to A45U C84G, 0.332.
To A45U C84U belongs 0.623.
To A45G A78U belongs 0.225.
For C44G G74C, the self-cleavage stood at 0.185.
To A45C A71C belongs 0.831.
In the case of C44G A71G it was 0.646.
To A43C U72C belongs 0.578; to A43G C63A, 0.642; to A43G C63G, 0.604.
With A45C A51G, the self-cleavage amounted to 0.587.
In the case of C44U C86G it was 0.928.
As for U46A G67U, the self-cleavage was determined as 0.789.
In the case of A45C A83G it was 0.23; in that of A43G G53A, 0.532; in that of A45G U79G, 0.317.
Regarding A45G U72C, the self-cleavage was 0.87.
As to A45G U72A, the self-cleavage amounted to 0.604.
To C44G G73U belongs 0.397; to A45G G67A, 0.678; to A45G G67U, 0.933.
To A45U C57G belongs 0.831; to C44A A83G, 0.443; to A45U A71G, 0.872.
A43C U65C: the self-cleavage worked out at 0.482.
Consider A43C U65G, for which the self-cleavage was determined as 0.453.
To A43C U65A belongs 0.623; to A43G C85A, 0.44; to A43G C85U, 0.446.
To A45C G67A belongs 0.719; to U46A C66A, 0.727.
In the case of U46C G81A it was 0.208; in that of A43U A56G, 0.665; in that of A43U C44A, 1.16.
